Results taken from patent US20230303695A1 (SHANGHAI XBH BIOTECHNOLOGY, published 2023).
Positions count from the first letter of the chain named. In names and notes the source's numbering stands.

T1: IGSF8 extracellular domain (ED) (Homo sapiens (Human), UniProt Q969P0 28-579)
T1 construct: also called IGSF8 ECD
T1 sequence: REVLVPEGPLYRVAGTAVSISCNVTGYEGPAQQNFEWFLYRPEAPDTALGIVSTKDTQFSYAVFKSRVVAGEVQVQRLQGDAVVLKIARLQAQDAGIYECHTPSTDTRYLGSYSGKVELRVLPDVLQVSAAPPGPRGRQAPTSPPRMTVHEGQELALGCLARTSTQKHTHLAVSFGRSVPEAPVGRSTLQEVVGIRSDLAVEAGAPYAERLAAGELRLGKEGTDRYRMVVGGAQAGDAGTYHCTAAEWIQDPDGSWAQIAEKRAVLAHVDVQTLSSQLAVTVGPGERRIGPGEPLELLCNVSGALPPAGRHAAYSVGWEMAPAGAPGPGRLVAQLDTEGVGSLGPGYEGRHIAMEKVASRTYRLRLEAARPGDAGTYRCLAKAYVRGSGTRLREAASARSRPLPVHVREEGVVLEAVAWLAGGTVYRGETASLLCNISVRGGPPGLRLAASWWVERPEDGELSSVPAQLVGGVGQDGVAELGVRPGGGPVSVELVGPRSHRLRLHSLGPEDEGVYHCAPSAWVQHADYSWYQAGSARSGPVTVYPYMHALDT

T2: recombinant human IGSF8 extracellular domain tagged by a human Fc region (IGSF8-hFc) (human, UniProt Q969P0 28-579, biotin label in Examples 17, 18 and 28 (site not given))
T2 construct: also called IGSF8-Fc fusion protein; IGSF8-hFc-biotin; not shown: human Fc region
T2 sequence: T1 sequence

B1: Antibody C1 (antibody, V domains shown)
VH: QVQLLQSGGGLVQPGGSLRLSCAASGFTFSRYRMSWVRQAPGKGLEWVSRISRSGGATAYADSVKGRFTISRDNSKNTLYLQMNSLRAEDTAVYYCARDATGRHYNGMDVWGRGTLVTVSS
VL: EIALTQSPSSLSASVGDRVTITCRASQTITRHLNWFQQKPGKAPNLLIHGTSALQTGVPPRFSGGGSGTDFTLTINSLQPEDFGTYYCQQSHTKPWTFGPGTKVEIKR
notes: also called anti-IGSF8 C1
B2: Antibody C2 (antibody, V domains shown)
VH: B1 VH with Q1E, R31S, R33P, S35N, A57R, A59S, G102R, R113K, L116T
VL: DVVMTQSPATLSLSPGERASLSCRASRSVGKYLAWYQQKPGQAPRLLFYYASLRAGDIPSRFTASGSGTDFTLTISRLEPEDFAVYYCQQYGSSPRTFGQGTKLEMKR
notes: also called anti-IGSF8 C2
B3: Antibody C7 (antibody, V domains shown)
VH: EVQLEESGGGLVQPGGSLRLSCAASGFTFSSYPMNWVRQAPGKGLEWVSRISRSGGRTSYADSVKGRFTISRDNSKNTLYLQMNSLRAEDTAVYYCARDATRRHYNGMDVWGKGTTVTVSS
VL: B2 VL with D1E, V2T, V3T, M4L
notes: also called anti-IGSF8 C7
B4: Antibody C12 (antibody, V domains shown)
VH: EVQLVESGGGLVQPGGSLRLSCAASGFTFSKYKMSWVRQAPGKGLEWVSTIAPSGGGTRYADSVKGRFTISRDNSKNTLYLQMNSLRAEDTAVYYCARGGHFSNPWGQGTLVTVSS
VL: DVVMTQSPLSLPVTLGQPASISCRSSQSLVHTDGDTYLNWYQQRPGQSPRRLIYKVSKRDSGVPDRFSGSGSGTDFTLKISRVEAEDVGVYYCMQGIKRPYTLGQGTKLEIKR
notes: also called anti-IGSF8 C12
B5: Antibody C11 (antibody, V domains shown)
VH: EVQLVESGGGLVQPGGSLRLSCAASGFTFSRYRMYWVRQAPGKGLEWVSSISSSGGRTKYADSVKGRFTISRDNSKNTLYLQMNSLRAEDTAVYYCARGVRYCSSPSCSRGPRYAMDVWGKGTTVTVSS
VL: DIQMTQSPSSLSASVGDRVTITCRASYVIRNDLSWYQQKPGKAPKLLIYGTSSLHNGVPSRFSGSGYGTYFTLTISSLQPEDFGTYYCLQDDKYPLTFGGGTKVEIKR
notes: also called anti-IGSF8 C11
B6: Antibody C3 (antibody, V domains shown)
VH: B3 VH with E1Q, E5V, S31H, N35R, R50S, S52R, S59K, R102G
VL: DVVMTQSPSSLSASVGDRVTITCRTSQVIGTSLNWYQQKPGRAPRLLIYSASNLQSGVPSRFSGSGHGTQFTLTISSLQPEDFATYSCQQSSRVPHTFGQGTKLEMRR
notes: also called anti-IGSF8 C3
B7: Antibody C10 (antibody, V domains shown)
VH: EVQLLESGGGLVQPGGSLRLSCAASGFTFSRYRMYWVRQAPGKGLEWVSTISRSGGRTVYADSVKGRFTISRDNSKNTLYLQMNSLRAEDTAVYYCARDATGRHYNGMDVWGQGTLVTV
VL: ETTLTQSPATLSVSPGERATLSCRASQSVSSNVAWYQQKPGQAPRLLMFGSGTRATGIPARFSGSGSGTEFTLTISSLQSEDFAAYYCQQYNDWPSFGQGTRVEIKG
notes: also called anti-IGSF8 C10
B8: L1VH-D99N (antibody, V domains shown)
VH: QVQLVESGGGVVQPGRSLRLSCAASGFTFSTYGMHWVRQAPGKGLEWVAVIWDDGSYKYYGDSVKGRFTISRDNSKNTLYLQMNSLRAEDTAVYYCARNGSGWGYAFDIWGQGTMVTVSS
VL: DIQLTQSPSSLSASVGDRVTITCQASQDISEYLNWYQHKPGKAPNPLVFDAANLETGVPPRFSATGSGTDFSLTITSLQPEDFATYYCQQYDSFPYTFGQGTRLDIK
B9: L1-27 (antibody, V domains shown)
VH: B8 VH with N99D, M115L
VL: DIQLTQSPSSLSASVGDRVTITCQASQDISYNLNWYQHKPGKAPKPLVFGSPNLETGVPSRFSASGSGTDFTLTISSLQPEDFATYYCQQYDSFPYTFGQGTKVEIK
B10: L1-25 (antibody, V domains shown)
VH: B8 VH with N99D, M115L
VL: B9 VL with Y31P, N32W
B11: L1-33 (antibody, V domains shown)
VH: B8 VH with D54G, S56K, N99D, M115L
VL: B9 VL with S30G, Y31P, N32W
B12: L1-28 (antibody, V domains shown)
VH: B8 VH with N99D, M115L
VL: B9 VL with S30E, Y31W, N32W, V48I, F49Y, A64G, L73F, F83I
B13: L1-16 (antibody, V domains shown)
VH: B8 VH with N99D, M115L
VL: DIQMTQSPSSLSASVGDRVTITCQASQDIGPWLNWYQQKPGKAPKLLIYGSPNLETGVPSRFSGSGSGTDFTFTISSLQPEDIATYYCQQYDSFPYTFGQGTKVEIK
B14: L1-21 (antibody, V domains shown)
VH: B8 VH with N99D, M115L
VL: B13 VL with M4L, Q38H, L46P
B15: L1-30 (antibody, V domains shown)
VH: B8 VH with N99D, M115L
VL: B9 VL with S30G, Y31P, N32W, S51A, P52D
B16: L1-32 (antibody, V domains shown)
VH: B8 VH with D54G, N99D, M115L
VL: B9 VL with S30G, Y31P, N32W
B17: L1-31 (antibody, V domains shown)
VH: B8 VH with D54G, S56K, N99D, M115L
VL: B9 VL with S30G, Y31P, N32W, G50R
B18: L1-29 (antibody, V domains shown)
VH: B8 VH with N99D, M115L
VL: B9 VL with S30G, Y31P, N32W, G50D, S51A
B19: L1-23 (antibody, V domains shown)
VH: B8 VH with N99D, M115L
VL: B9 VL with S30G, Y31P, N32W
B20: L1-26 (antibody, V domains shown)
VH: B8 VH with N99D, M115L
VL: B9 VL with Y31P, N32Y
B21: L1-19 (antibody, V domains shown)
VH: B8 VH with N99D, M115L
VL: B13 VL with G30S, W32Y, G50D, S51A
B22: L1-17 (antibody, V domains shown)
VH: B8 VH with N99D, M115L
VL: B13 VL with G50D, S51A
B23: L1-22 (antibody, V domains shown)
VH: B8 VH with N99D, M115L
VL: B13 VL with M4L, G30S, Q38H, L46P
B24: L1-24 (antibody, V domains shown)
VH: B8 VH with N99D, M115L
VL: B9 VL with S30G, Y31P, N32Y
B25: L1VL-Q24H (antibody, V domains shown)
VH: B8 VH with N99D
VL: B8 VL with Q24H
B26: L1VL-Y91F (antibody, V domains shown)
VH: B8 VH with N99D
VL: B8 VL with Y91F
B27: L1VH-W52L (antibody, V domains shown)
VH: B8 VH with W52L, N99D
VL: B8 VL
notes: mutant of the L1 antibody
B28: L1VL-V48D (antibody, V domains shown)
VH: B8 VH with N99D
VL: B8 VL with V48D
B29: L1VL-P46L (antibody, V domains shown)
VH: B8 VH with N99D
VL: B8 VL with P46L

The binders below were run against T1, IGSF8 extracellular domain (ED) (assay: ELISA on IGSF8 extracellular domain).

binding result | Binder
binds | B1
binds | B2
binds | B3
binds | B4
binds | B5
binds | B6
binds | B7

These binders were tested against T2, recombinant human IGSF8 extracellular … (assay: SPR, Ab captured).
Experimental: The binding affinities of the L1 and L2 antibodies to IGSF8 recombinant protein were determined by surface plasmon resonance (SPR). Briefly, anti-human Fab antibody was imobilized on acarboxyl-derivatized SPR chip surface, and the antibodies were captured on the resulting surface at 5 μg/ml for 30 seconds.

Kd | koff | kon | Binder
138 nM | 0.00246 s⁻¹ | 17800 M⁻¹ s⁻¹ | B8
1.88 nM | 0.000835 s⁻¹ | 444000 M⁻¹ s⁻¹ | B9
4.46 nM | 0.0022 s⁻¹ | 492000 M⁻¹ s⁻¹ | B10
0.029 nM | 8.01e-06 s⁻¹ | 276000 M⁻¹ s⁻¹ | B11
0.00117 nM | 4.28e-07 s⁻¹ | 367000 M⁻¹ s⁻¹ | B12
3.33 nM | 0.00111 s⁻¹ | 333000 M⁻¹ s⁻¹ | B13
6.71 nM | 0.00272 s⁻¹ | 406000 M⁻¹ s⁻¹ | B14
0.00642 nM | 3.03e-06 s⁻¹ | 472000 M⁻¹ s⁻¹ | B15
0.021 nM | 6.56e-06 s⁻¹ | 312000 M⁻¹ s⁻¹ | B16
0.00371 nM | 7.8e-07 s⁻¹ | 210000 M⁻¹ s⁻¹ | B17
0.0112 nM | 4.25e-06 s⁻¹ | 381000 M⁻¹ s⁻¹ | B18
0.00235 nM | 1.19e-06 s⁻¹ | 506000 M⁻¹ s⁻¹ | B19
0.987 nM | 0.000497 s⁻¹ | 503000 M⁻¹ s⁻¹ | B20
4.58 nM | 0.000705 s⁻¹ | 154000 M⁻¹ s⁻¹ | B21
3.78 nM | 0.0012 s⁻¹ | 318000 M⁻¹ s⁻¹ | B22
2.94 nM | 0.000363 s⁻¹ | 123000 M⁻¹ s⁻¹ | B23
0.0068 nM | 3.06e-06 s⁻¹ | 450000 M⁻¹ s⁻¹ | B24
144 nM | 0.00775 s⁻¹ | 53700 M⁻¹ s⁻¹ | B25
321 nM | 0.00145 s⁻¹ | 4500 M⁻¹ s⁻¹ | B26
855 nM | 0.0165 s⁻¹ | 19300 M⁻¹ s⁻¹ | B27
708 nM | 0.023 s⁻¹ | 32400 M⁻¹ s⁻¹ | B28
124 nM | 0.00341 s⁻¹ | 27500 M⁻¹ s⁻¹ | B29
